Article PMC11160672 (bioRxiv, 2024)

B1: Acetyl-CoA carboxylase carboxyltransferase subunit AccD (enzyme, E. coli, UniProt P0A9Q5 1-304, looked up)
chain: MSWIERIKSNITPTRKASIPEGVWTKCDSCGQVLYRAELERNLEVCPKCDHHMRMTARNRLHSLLDEGSLVELGSELEPKDVLKFRDSKKYKDRLASAQKETGEKDALVVMKGTLYGMPVVAAAFEFAFMGGSMGSVVGARFVRAVEQALEDNCPLICFSASGGARMQEALMSLMQMAKTSAALAKMQERGLPYISVLTDPTMGGVSASFAMLGDLNIAEPKALIGFAGPRVIEQTVREKLPPGFQRSEFLIEKGAIDMIVRRPEMRLKLASILAKLMNLPAPNPEAPREGVVVPPVPDQEPEA
B2: Acetyl-CoA carboxylase carboxyltransferase subunit AccA (enzyme)
chain: MSLNFLDFEQPIAELEAKIDSLTAVSRQDEKLDINIDEEVHRLREKSVELTRKIFADLGAWQIAQLARHPQRPYTLDYVRLAFDEFDELAGDRAYADDKAIVGGIARLDGRPVMIIGHQKGRETKEKIRRNFGMPAPEGYRKALRLMQMAERFKMPIITFIDTPGAYPGVGAEERGQSEAIARNLREMSRLGVPVVCTVIGEGGSGGALAIGVGDKVNMLQYSTYSVISPEGCASILWKSADKAPLAAEAMGIIAPRLKELKLIDSIIPEPLGGAHRNPEAMAASLKAQLLADLADLDVLSTEDLKNRRYQRLMSYGYA

Experiments:
Biotin carboxylase AccC = Biotin carboxylase AccC (E. coli, UniProt P24182 1-449); experiment: SEC
[1] = biological target: B2; experiment: cryo-EM structure

Row | stoichiometry N (Biotin carboxylase AccC) | binding result [1] | Binder
1 | ~1 | binds | B1
2 | ~1 |  | B2
